Blank lines part the entries; values can stand above or below the binder they belong to.
B3: Nek7 N90R (enzyme)
chain: not shown
B4: Nek7 N90A (enzyme)
chain: not shown
B5: Nek7 N90K (enzyme)
chain: not shown

Key:
[1] = biological target: T1, phosphorylated Nek7^WT (human, UniProt Q8TDX7 1-302, phosphorylated (sites not stated for this preparation)); assay: pull-down; GST co-precipitation: 100 μg GST-Nek9 protein immobilised on glutathione sepharose-4B beads, incubated with 100 μg Nek7 in 500 μl for 1 h at 4 °C; 50 mM HEPES pH 7.5, 300 mM NaCl, 5% glycerol, 5 mM dithiothreitol, 0.05% Tween-20; Coomassie staining or immunoblot with α-His6; conditions: both partners purified
T1 construct: Nek7, human, full length; also called phospho-Nek7^WT; source: E. coli Codonplus RPIL, co-expressed with or without λ-phosphatase, purified (HisTRAP, Superdex-200)

[2] = biological target: B4; assay: as above; conditions: both partners purified
[3] = biological target: B3; assay: as above; conditions: both partners purified
[4] = biological target: T2, Nek7 K96E (human, UniProt Q8TDX7 1-302, K96E); assay: as above; conditions: both partners purified
T2 construct: Nek7, human, full length; source: E. coli Codonplus RPIL, co-expressed with or without λ-phosphatase, purified (HisTRAP, Superdex-200)

[5] = biological target: T3, Nek7-His6, full-length wild type, unphosphorylated (human, UniProt Q8TDX7 1-302); assay: as above; conditions: both partners purified
T3 construct: Nek7 (NIMA-related kinase 7), human, full length; also called Nek7^WT; unphosphorylated Nek7^WT; source: E. coli Codonplus RPIL, co-expressed with or without λ-phosphatase, purified (HisTRAP, Superdex-200); not shown: His6, C-terminal, kept

[6] = biological target: T4, Nek7^Y97A, full length (human, UniProt Q8TDX7 1-302, Y97A); assay: as above; conditions: both partners purified
T4 construct: Nek7, human, full length; source: E. coli Codonplus RPIL, co-expressed with or without λ-phosphatase, purified (HisTRAP, Superdex-200)

[7] = biological target: B5; assay: as above; conditions: both partners purified
[8] = biological target: T5, Nek7^Y97F, full length (human, UniProt Q8TDX7 1-302, Y97F); assay: as above; conditions: both partners purified
T5 construct: Nek7, human, full length; residues 20-300 modelled in the structure; source: E. coli Codonplus RPIL, co-expressed with or without λ-phosphatase, purified (HisTRAP, Superdex-200)

[9] = biological target: the molecule itself; assay: cell-based or functional assay
[10] = biological target: T5, Nek7^Y97F, full length; assay: crystal structure; co-crystallisation by sitting drop vapour diffusion, Nek7^Y97F at 440 μM and Nek9 peptide at 880 μM; 0.2 M potassium thiocyanate, 0.1 M bis-Tris propane pH 7.5, 20% PEG 3350; 2.78 Å, space group P3_(1) 2 1; conditions: both partners purified

T3 sequence (Q8TDX7 whole entry): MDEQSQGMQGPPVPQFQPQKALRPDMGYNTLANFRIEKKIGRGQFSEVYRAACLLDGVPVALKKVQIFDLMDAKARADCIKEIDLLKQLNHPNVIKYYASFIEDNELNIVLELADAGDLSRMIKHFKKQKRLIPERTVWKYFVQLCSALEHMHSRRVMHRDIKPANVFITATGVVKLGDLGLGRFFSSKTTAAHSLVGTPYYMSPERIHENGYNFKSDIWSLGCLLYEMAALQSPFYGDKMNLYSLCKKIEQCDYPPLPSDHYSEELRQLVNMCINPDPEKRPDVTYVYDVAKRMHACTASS
T5 sequence (Q8TDX7 whole entry Y97F, the tested form may be a part): as the sequence (Q8TDX7 whole entry) above, with Y97F counted along it
T2 sequence (Q8TDX7 whole entry K96E): as the sequence (Q8TDX7 whole entry) above, with K96E counted along it
T4 sequence (Q8TDX7 whole entry Y97A): as the sequence (Q8TDX7 whole entry) above, with Y97A counted along it
T1 sequence (Q8TDX7 whole entry): as the sequence (Q8TDX7 whole entry) above

B1: GST-Nek9-CTD (aa 726–979) (domain or fragment, human, UniProt Q8TD19 726-979, looked up)
chain: KVLNSKTIRSNSSGLSIGTVFQSSSPGGGGGGGGGEEEDSQQESETPDPSGGFRGTMEADRGMEGLISPTEAMGNSNGASSSCPGWLRKELENAEFIPMPDSPSPLSAAFSESEKDTLPYEELQGLKVASEAPLEHKPQVEASSPRLNPAVTCAGKGTPLTPPACACSSLQVEVERLQGLVLKCLAEQQKLQQENLQIFTQLQKLNKKLEGGQQVGMHSKGTQTAKEEMEMDPKPDLDSDSWCLLGTDSCRPSL
notes: Nek9, human, C-terminal domain, residues 726-979; For some kinase assays the GST tag was removed with 3C protease; also called Nek9 non-catalytic C-terminal domain; N9 CTD; source: E. coli, purified (glutathione sepharose); not shown: GST, N-terminal, kept
binding result [1]: binds
binding result [2]: binds
binding result [3]: binds
binding result [4]: binds
binding result [5]: binds
binding result [6]: binds
binding result [7]: binds
binding result [8]: binds

Binder: B3
in vitro kinase activity of the initially unphosphorylated Nek7 mutant, in the presence or absence of Nek9-CTD, against WT (32P incorporation, scintillation counting) [9]: ≤ 10 fold

Binder: B4
fold decrease in in vitro kinase activity of the initially unphosphorylated Nek7 mutant, against WT (32P incorporation, scintillation counting) [9]: ~2 fold

Binder: B5
in vitro kinase activity of the initially unphosphorylated Nek7 mutant, in the presence or absence of Nek9-CTD, against WT (32P incorporation, scintillation counting) [9]: ≤ 10 fold

The remaining lines, values ahead:

binding result [5]: binds
B2: GST-Nek9 810–828 (domain or fragment, human, UniProt Q8TD19 810-828, looked up)
chain: GWLRKELENAEFIPMPDSP
notes: source: E. coli, purified (glutathione sepharose)

binding result [10]: binds
B6: synthetic peptide corresponding to aa 810–828 of Nek9 (peptide, UniProt Q8TD19 810-828, looked up)
peptide: GWLRKELENAEFIPMPDSP
notes: source: synthetic peptide (Peptide Synthetics)

Source: publication PMC4632185, “Mechanistic basis of Nek7 activation through Nek9 binding and induced dimerization” (Nature Communications, 2015)
